± gives the uncertainty stated by the source.
assay: amyloid nucleation score (Sup35N fusion, yeast selection) (log enrichment); library NNK1; higher = more nucleation; inactive = no reads after selection
How it was run: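 Nucleation score is defined as the DiMSum log enrichment of output over input reads, with centring on the mode score of non-aggregating sequences. A minimum of 100 input reads was required for each sequence. Reads came from Illumina sequencing of plasmid inserts from psi-negative yeast expressing Sup35N fused to peptides of 20 random codons, induced with 100 μM copper sulfate for 24 hours and grown 7 days at 30°C on medium lacking adenine and uracil.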

Substance	amyloid nucleation score
IWMIAQDGFNFQLSNR	0.282 ± 0.31
IWSSVQEFLGCMFWVIRINH	1.77 ± 0.45
IWVHHRSVTKSWLKMVAWNH	-0.514 ± 0.43
IYCSCPSKQE	-0.075 ± 0.24
IYIGLLYVLCIGLASMCLTS	0.199 ± 0.84
IYPRMCLRGFAACV	2.91 ± 0.13
IYRDGIGTDIWFRGSICKCL	0.704 ± 0.61
IYRFGFRACVDPGLRIV	inactive
IYVLYQIERSVK	-0.154 ± 0.58
IYWSP	0.569 ± 0.26
IYYTSWYINAYLCGHMPVRG	2.52 ± 0.23
KACFPLI	0.631 ± 0.45
KADIFYSLCFLRVEG	-0.338 ± 0.79
KADQCLSWDS	-0.717 ± 0.97
KAPCDFSGFCRCRVTGPSHC	0.412 ± 0.33
KCDRHLKSYWSKELHYYYNF	-0.894 ± 0.38
KCGRVWHVFFVVSYQGVGST	1.31 ± 0.46
KCLSLNCMPYTFLLSRYYPY	inactive
KCLTLSCILDVCKNIVEEMI	0.047 ± 0.46
KCMEIILVLRVVRKWGSGGM	0.654 ± 0.97
KCSVCF	2.24 ± 0.35
KDHTWWALCFYIKIFELKVR	1.39 ± 0.73
KDRFMSIYLVSYWSGLCTGL	inactive
KDRMITPKPTVVTHLVVSYG	-0.23 ± 0.22
KDSFLMGGLFFMTAAWVSPR	1.54 ± 0.27

Substance	amyloid nucleation score
KDTQCHIARATRRGVRGNVF	-0.48 ± 1.1
KELCGLRGYTFYEQF	0.588 ± 0.74
KENQSIRFWVD	inactive
KFACLRWVICKYCLWV	-0.412 ± 0.49
KFFHLAIMWFTPSSPHKGTC	-0.496 ± 0.62
KFIDFERLFSLRGWSVCNER	0.889 ± 0.24
KFRDPYCKHRWAGLGKQSGD	0.052 ± 0.4
KFRSKLWNYFFACVEPATHP	-0.013 ± 0.72
KFVTVKTRQLKSAGASIVSG	-0.119 ± 0.69
KFVVMGWGYLTIRVVSVTDK	1.92 ± 0.64
KGFFNAITGDKIPRPSRDRR	0.174 ± 0.48
KGGSPQYNGVTSMWWDRKFD	-0.255 ± 0.38
KGHSANVYTAPLLCNNCHFF	6.703 ± 0.059
KGMYISWIVAVCS	0.411 ± 0.3
KGSSAMPL	inactive
KGWWKGLRARSQGPGVSDVW	-0.314 ± 0.57
KGYYDFRGVSLMVPVMFTMS	0.048 ± 0.38
KHQGNMTTINNKRAARLLGP	inactive
KHVGWSYG	0.779 ± 0.48
KICTYSRFC	0.848 ± 0.39
KILCWNIFLPYKGVRGRFGM	6.895 ± 0.053
KIRLQVNSFMFVTPWAHFMV	4.55 ± 0.052
KIRRGCMLLGQHVWTT	0.207 ± 0.35
KIRSPYNMMPMLTLGTSKGV	0.845 ± 0.61
KKRPRYRRWTS	0.578 ± 0.52

Substance	amyloid nucleation score
KLCQVRHVSWIMSCQRYKQD	0.058 ± 0.49
KLCRFCNRVCYCQ	-0.691 ± 1
KLCWASTRMMWRFYFLDCLD	0.146 ± 0.39
KLDNCGCGRGCEQLDVVQSQ	0.044 ± 0.53
KLHNILLWNCLVFLCVMYVW	inactive
KLILWGRLSANNFYYSFGFL	-0.214 ± 0.27
KLINCLGIVL	-0.92 ± 1.1
KLKINCMYN	2.03 ± 0.45
KLLDSSVVDSLRQHCEAGLR	0.075 ± 0.3
KLLHLVIVDELCFVRYSGLA	0.381 ± 0.81
KLQMGFIKMFAGQECFDVHA	inactive
KLSVGYRFWVLDSDFIVDDY	0.16 ± 0.23
KLVLLGNK	0.134 ± 0.5
KLVLYEVFSSKKKHIFLSHQ	0.586 ± 0.26
KLYNGLQHVQAGTLVMQ	0.46 ± 1.2
KMGYFE	0.915 ± 0.45
KMSAWQFGGHVLCNARMGYE	-0.112 ± 0.36
KMWIRCVIGVRMLYPFARCG	-0.138 ± 0.49
KNDYSYWL	-0.275 ± 0.65
KNKVTFKVG	0.22 ± 0.3
KPERICLWLVVKRYSMVHLW	0.253 ± 0.51
KQNNGFGWEYEAGGLHRKGA	-0.989 ± 2.7
KRFSSCLRRWAACNGESAAL	0.412 ± 0.45
KRIDDYAKFRC	inactive
KRLGWSSVFRLARVERVLRS	-0.929 ± 1.9

Substance	amyloid nucleation score
KRVLNLFGEESFAGMIWIDY	-0.125 ± 0.97
KSDLLNMRWVGYWFIVSSMR	0.099 ± 0.67
KSDVAARVCDER	0.526 ± 0.31
KSEYWHSCYVANSPYDYRTV	-0.422 ± 1.2
KSFYGNFRGFFNALNIYHSS	1.83 ± 0.28
KSLFVLVWTLLLPT	-0.223 ± 0.35
KSLMRTTMSCQSDYEDQKDV	0.883 ± 0.78
KSLQTETFTKTAATQKSELA	-0.3 ± 0.52
KSLSRFRVTNSKEYMSAMGT	-0.299 ± 0.26
KSMMDMSYLMEYIGI	-2.65 ± 2.4
KSVLQFETMGFVDLYFSFNL	5.49 ± 0.091
KSVPRKVFGAILDFLDLQLM	0.979 ± 0.73
KSWQFMSRGVSGWFWRLVPQ	0.743 ± 0.48
KSYVCGTLTFRLGSVHCVNM	7.025 ± 0.057
KTGFYGFMVGM	4.54 ± 0.063
KTRFLKYDNLSWTDKSNWVL	inactive
KVFRLILGGVSNKYT	0.228 ± 0.64
KVFSVHRHCQESVVGAVLCS	-0.371 ± 0.73
KVQIY	-0.968 ± 0.36
KVRMLNMVYKNLSDRD	0.884 ± 0.56
KVWSGCSAPQ	2.09 ± 0.43
KWCDMRGYGQRFRCGRMVHV	-0.727 ± 0.73
KWTGRGSYNDRLFVRRRMF	-0.073 ± 0.47
LAAVQTDMFISTLLECLDDK	1.08 ± 0.35
LADDHE	0.229 ± 0.93

Substance	amyloid nucleation score
LAEGASTL	-0.217 ± 1.1
LAHWHFNWSRILQCFYW	3.08 ± 0.095
LAIEENVRDQSGDYVWALIL	-0.122 ± 0.35
LALHEWLWLFDTFH	-0.097 ± 0.62
LALKYPSLISPKRWT	0.688 ± 0.36
LALVFLLMFVHQSDDYKLRN	2.89 ± 0.17
LAMSSQSHYCKRRSVCRKSV	0.786 ± 0.81
LAPNNYAFHVNKSWGMNLVW	1.05 ± 0.2
LASEHNGASLICTLACTYLW	-0.642 ± 1
LASGNILAICWTRSEGSDTL	-0.313 ± 1.1
LASHHLACCYPNLSTSYLNP	-0.118 ± 0.84
LAYKNSLWGLLWKRF	-0.011 ± 0.49
LCAFLPVRTVKLCAFRIFDR	-1.06 ± 0.85
LCCAKLRNAIKVVNQCTCGY	4.4 ± 0.049
LCCKVLLALSAPGQFSVHNA	-0.621 ± 1.4
LCDFVLNIEREVNVYSFIKL	2.34 ± 0.13
LCDSPSKYNGPEYSMYVNLN	1.51 ± 0.7
LCEFSPLSCGCYGRDPHVPP	-0.73 ± 1.2
LCELQYAKWIMKLVYKTFTT	inactive
LCFVVVTSHDRGMHVIKVET	-0.857 ± 0.51
LCIIYVNYSGLLMTVNISSF	inactive
LCKVPLNT	1.36 ± 0.9
LCLSSWGLTLSLLIDCIYNR	-0.53 ± 0.48
LCMMMVQPLQGLSSAVTWSQ	-0.54 ± 0.35
LCRFSAEDHCYADCTVDHCC	-0.244 ± 0.66

Substance	amyloid nucleation score
LCSMKMIYQKC	0.177 ± 0.33
LCTLCIALPVMRVLSTVPVP	0.267 ± 0.59
LCVCGPRSVVNAREDVEGLS	0.478 ± 0.55
LCVRAIVRSCNSWKKYSFPR	0.031 ± 1
LCWVYHYKGFKRGVCRRCES	-0.86 ± 1.6
LCYFQGSWYLVRCAIALTYV	0.327 ± 0.48
LDASRNFVLLFS	0.784 ± 0.34
LDCHD	-0.246 ± 0.44
LDDAWRVWMHSL	0.981 ± 0.43
LDFNLICLYFLM	5.37 ± 0.072
LDLAGGKG	1.74 ± 0.14
LDNRYFGHIMSLELMFIRPS	1.19 ± 0.58
LDNWYISRFCCDVMTDANVD	-0.322 ± 0.8
LDTYRVNWMMRLATYNMMVM	0.312 ± 0.4
LDWHKLRDWVKLGW	-0.255 ± 0.73
LDWLMGGRTA	-0.598 ± 1.7
LENYDRGDSTRHIDCRLLFL	0.275 ± 0.52
LEQCYAAHSTYKMMPWAYKA	0.091 ± 0.33
LETINSSGRHF	2.74 ± 0.091
LEVVHRVLCTFCLFDSLMVY	1.78 ± 0.26
LEVYGQCDRVHCHSSR	-0.276 ± 0.5
LFFECVTLHLYLVKSS	-1.1 ± 2.4
LFFEVMHTFMLNMEFLLRFI	-1.12 ± 0.94
LFGLYFICSLKAISSYTERL	0.456 ± 0.23
LFHGCLVGLSMRKVKKKNPA	0.277 ± 0.28

Substance	amyloid nucleation score
LFIKFGTHVRYILA	-0.202 ± 0.42
LFIKVLLGFF	0.32 ± 0.45
LFLGGVIVHSQLCMTVGCCF	6.54 ± 0.079
LFLMKANMELVNLYFRSEVR	-0.556 ± 0.52
LFLSSCLNSGLGGTL	0.105 ± 0.29
LFMIMLL	-1.01 ± 0.43
LFRNANAMDYVVRCWCSRGI	0.928 ± 0.18
LFSWICEN	0.142 ± 0.28
LFVRFKTYVLP	0.663 ± 0.3
LFVRKVIYVDR	0.379 ± 0.33
LFYNICFYA	6.738 ± 0.048
LGALIYNSAFN	inactive
LGDELDTDAASISSNMEIWS	inactive
LGEMGRVSYLYVCLHWALLS	0.119 ± 0.44
LGFAFQNVTKALNLTFAYGS	0.81 ± 0.15
LGFLRLFKKYVFYACCDVYS	-0.175 ± 0.84
LGFPMRSVGQI	inactive
LGFRVNWIDHPRSNRSTAGL	0.604 ± 0.97
LGGGTFVRWLKSILSFLLW	0.325 ± 0.46
LGKIAQLYSEEVEQKSGSGV	-0.539 ± 0.42
